Reference: paper PMC11764276 (2024)
Read-outs that look alike come from different tables or passages of the source.

Assays:
Experiment in all cases: SPR
[1] = target: T1, RBD (residues 334–527 of the SARS-CoV-2 spike glycoprotein) (SARS-CoV-2, UniProt P0DTC2 334-527)
[2] = target: T1, RBD (residues 334–527 of the SARS-CoV-2 …); remark: listed apart in the source
[3] = target: T1, RBD (residues 334–527 of the SARS-CoV-2 …); remark: listed apart in the source

| Binder | Kd [1] [µM] | koff [2] [s⁻¹] | Kd [3] [µM] |
| --- | --- | --- | --- |
| 2196_CDRL3_RP (antibody, V domains shown) VH: QMQLVQSGPEVKKPGTSVKVSCKASGFTFMSSAVQWVRQARGQRLEWIGWIVIGSGNTNYAQKFQERVTITRDMSTSTAYMELSSLRSEDTAVYYCAAPYCSSISCNDGFDIWGQGTMVTVSS VL: not shown | 0.203 | 0.12 | 0.204 |
| 2196_CDRL3_Q (antibody, V domains shown) VH: QMQLVQSGPEVKKPGTSVKVSCKASGFTFMSSAVQWVRQARGQRLEWIGWIVIGSGNTNYAQKFQERVTITRDMSTSTAYMELSSLRSEDTAVYYCAAPYCSSISCNDGFDIWGQGTMVTVSS VL: not shown | – | 0.0171 | – |
| 2196_CDRL3_GP (antibody, V domains shown) VH: QMQLVQSGPEVKKPGTSVKVSCKASGFTFMSSAVQWVRQARGQRLEWIGWIVIGSGNTNYAQKFQERVTITRDMSTSTAYMELSSLRSEDTAVYYCAAPYCSSISCNDGFDIWGQGTMVTVSS VL: not shown | – | 0.0133 | – |
| 2196_CDRL1_des1 (antibody, V domains shown) VH: QMQLVQSGPEVKKPGTSVKVSCKASGFTFMSSAVQWVRQARGQRLEWIGWIVIGSGNTNYAQKFQERVTITRDMSTSTAYMELSSLRSEDTAVYYCAAPYCSSISCNDGFDIWGQGTMVTVSS VL: EIVLTQSPGTLSLSPGERATLSCRASQTISNNFVAWYQQKPGQAPRLLIYGASSRATGIPDRFSGSGSGTDFTLTISRLEPEDFAVYYCQHYGSSRGWTFGQGTKVEIK | 0.0476 | 0.0823 | – |
| DMAb-2196_CDRL3_P (antibody, V domains shown) VH: QMQLVQSGPEVKKPGTSVKVSCKASGFTFMSSAVQWVRQARGQRLEWIGWIVIGSGNTNYAQKFQERVTITRDMSTSTAYMELSSLRSEDTAVYYCAAPYCSSISCNDGFDIWGQGTMVTVSS VL: not shown | 0.0885 | 0.1 | – |
| 2196 HC + 2072 LC (antibody, V domains shown) VH: QMQLVQSGPEVKKPGTSVKVSCKASGFTFMSSAVQWVRQARGQRLEWIGWIVIGSGNTNYAQKFQERVTITRDMSTSTAYMELSSLRSEDTAVYYCAAPYCSSISCNDGFDIWGQGTMVTVSS VL: not shown | – | 0.0309 | – |
| 2196 WT (recombinant mAb COV2-2196) (antibody, V domains shown) VH: QMQLVQSGPEVKKPGTSVKVSCKASGFTFMSSAVQWVRQARGQRLEWIGWIVIGSGNTNYAQKFQERVTITRDMSTSTAYMELSSLRSEDTAVYYCAAPYCSSISCNDGFDIWGQGTMVTVSS VL: not shown | – | 0.0133 | – |
| 2196_CDRL1_des2 (antibody, V domains shown) VH: QMQLVQSGPEVKKPGTSVKVSCKASGFTFMSSAVQWVRQARGQRLEWIGWIVIGSGNTNYAQKFQERVTITRDMSTSTAYMELSSLRSEDTAVYYCAAPYCSSISCNDGFDIWGQGTMVTVSS VL: EIVLTQSPGTLSLSPGERATLSCRASQTISNSYVAWYQQKPGQAPRLLIYGASSRATGIPDRFSGSGSGTDFTLTISRLEPEDFAVYYCQHYGSSRGWTFGQGTKVEIK | – | 0.0216 | – |
